Experimental data: paper PMC11698047, “The dual Ras-association domains of Drosophila Canoe have differential roles in linking cell junctions to the cytoskeleton during morphogenesis” (Journal of Cell Science, 2024)
“And” between values parts separate entries of the source, which are not always exact repeats. Equal values may be shown once.

B1: Drosophila melanogaster GTPase Rap1G12V (amino acids 1-180), GMPPNP-loaded (enzyme, UniProt P08645 1-180, looked up)
chain: MREYKIVVLGSVGVGKSALTVQFVQCIFVEKYDPTIEDSYRKQVEVDGQQCMLEILDTAGTEQFTAMRDLYMKNGQGFVLVYSITAQSTFNDLQDLREQILRVKDTDDVPMVLVGNKCDLEEERVVGKELGKNLATQFNCAFMETSAKAKVNVNDIFYDLVRQINKKSPEKKQKKPKKSL
notes: Rap1 GTPase, Drosophila melanogaster, amino acids 1-180, constitutively active G12V mutant; Loaded with the non-hydrolysable nucleotide GMPPNP and Mg2+ (formula mass 21.0 kDa); Cloned NdeI/EcoRI in pET28; a few vector residues probably remain at the N-terminus after thrombin cleavage (surmised); also called Rap1-GMPPNP; Rap1G12V-GMPPNP; source: E. coli BL21 DE3 pLysS, purified (Ni-NTA, thrombin …)
B2: Drosophila melanogaster Canoe RA2 domain (amino acids 222-350, including the αN helix), with His-tag (domain or fragment, UniProt Q24279 222-350, looked up)
chain: TRSISNPEAVMRRRRQQKLEKKLQQFRSRDGGPDTGGTLKIYGESLCQDVPYKTLLLSIRDCAQAVVREMLTKYGLEKADPLHYCLVQVNSDGTEYILDDDECPLSILMNHPTSRGSIMFHVRRRPADS
notes: Canoe (Cno), Drosophila melanogaster, RA2 domain with its N-terminal αN helix, amino acids 222-350; Cloned NdeI/EcoRI in pET28; also called Cno RA2; RA2 with His-tag; source: E. coli BL21 DE3 pLysS, purified (Ni-NTA, without thrombin treatment); not shown: His6, N-terminal, kept
B3: Drosophila melanogaster Canoe RA1 domain (amino acids 1-137, including the αN helix) (domain or fragment, UniProt Q24279 1-137, looked up)
chain: MSHDKKMLDREAVRSVIQQWNANRLDLFALSEPDENLLFHGVMRFYFQDAGQKVATKCIRVASDATVTDVIDTLIEKFRPDMRMLSVPNYALYEVHANGEERRLNADEKPLLVQLNWHIDDREGRFLLKNIDQKTTP
notes: Canoe (Cno), Drosophila melanogaster, RA1 domain with its N-terminal αN helix, amino acids 1-137; The methods say that some RA1 preparations were purified without thrombin treatment; also called Cno RA1; source: E. coli BL21 DE3 pLysS, purified (Ni-NTA, thrombin cleavage, benzamidine sepharose, second Ni-NTA); not shown: His6, N-terminal, cleaved

Columns and labels:
Settings in all cases: both partners purified
[1] = target: B3; assay: SEC-MALS; 100 µl of individual proteins (200 µM) or RA domain-Rap1G12V-GMPPNP complexes (200 µM complex) on Superdex 200, 0.5 ml/min, buffer C (25 mM HEPES-NaOH pH 7.5, 100 mM NaCl, 5 mM MgCl2, 0.1% β-ME) with 0.2 g/l sodium azide; in duplicate
[2] = target: B2; assay: ITC; GMPPNP-loaded Rap1G12V (150-670 µM for RA1; 650-1200 µM for RA2) injected into the cell with RA1 (20-50 µM) or RA2 (42-80 µM); 25°C, buffer C (25 mM HEPES-NaOH pH 7.5, 100 mM NaCl, 5 mM MgCl2, 0.1% β-ME); one-site binding model
[3] = target: B3; assay: as above
[4] = target: B1; assay: as above

Binder	stoichiometry N [1]	dH [2]	stoichiometry N [2]	dH [3]	stoichiometry N [3]	Kd [4]
B1	1	-3.07 kcal/mol and -2.18 kcal/mol and -2.72 kcal/mol	0.755 and 0.73 and 0.63	-4.38 kcal/mol and -4.79 kcal/mol	0.717	–
B2	–	–	–	–	–	8.8 µM and 7.9 µM and 8.7 µM
B3	–	–	–	–	–	4.5 µM and 5.9 µM
